Assay results as given in patent US20210283252A1 (POLPHARMA BIOLOGICS S A, published 2021).

Legend:
[1] = biological target: T1, α4β7 integrin (UniProt P13612 34-970; P26010 20-723, limits assumed); assay: MadCAM-1 competitive ELISA; coated α4β7 integrin, Fc-tagged MadCAM-1 as competitor; lowest of 24 batches
Description: (§1) In still another alternative one can measure MadCAM-1 competitive binding by ELISA. The aim of this assay is to test the ability of natalizumab to inhibit interaction of α₄β₇ integrin with its cognate receptor—MadCAM-1 protein in a dose-dependent manner. Constant amount of the coated α₄β₇ integrin is incubated with serial dilutions of natalizumab in the presence of Fc-tagged MadCAM-1 receptor. Natalizumab and MadCAM-1 receptor now compete for binding to solid-phase associated α₄β₇ integrin. The higher the natalizumab concentration the more MadCAM-1 is inhibited from binding to α₄β₇ integrin. The lowest signal result is observed when no natalizumab is present. […] is subsequently detected with a POD-conjugated anti-human IgG antibody and a TMB-substrate reaction at the end of the assay. Data are analyzed with 4PL fitting model. Final result is expressed as a Relative Potency (REP) of tested sample in relation to reference standard. The method variability was determined at the level of 8% coefficient variation (CV) of intermediate precision within the qualification exercise. Additionally accuracy, linearity and specificity were tested.

[2] = biological target: T1, α4β7 integrin; assay: MadCAM-1 competitive ELISA; coated α4β7 integrin, Fc-tagged MadCAM-1 as competitor; highest of 24 batches
Description: as §1

[3] = biological target: T2, HIS-tagged α4β1 integrin (UniProt P13612 34-977; P05556 21-728, limits assumed); assay: VCAM-1 competitive ELISA; coated VCAM-1 as competitor, HIS-tagged α4β1 integrin in solution; 26 batches, n=3
T2 construct: Soluble, HIS-tagged
Description: (§2) Alternatively, one can also measure VCAM-1 competitive binding by ELISA. The aim of this assay is to test the ability of natalizumab to inhibit interaction of α₄β₁ integrin with its cognate receptor VCAM-1 protein in a dose-dependent manner. Constant amount of the coated VCAM-1 protein is incubated with serial dilutions of natalizumab in the presence of HIS-tagged α₄β₁ integrin. Solid-phase associated VCAM-1 and soluble natalizumab now compete for binding to α₄β₁, integrin. The higher the natalizumab concentration the more α4β1 integrin is inhibited from binding to VCAM-1. The highest signal result is observed when no natalizumab is present. Bound HIS-tagged α₄β₁ integrin is subsequently detected with a biotinylated anti-HIS-tag antibody, POD-conjugated Streptavidin and a TMB-substrate reaction at the end of the assay. Data are analyzed with 4PL fitting model. Final result is expressed as a Relative Potency (REP) of tested sample in relation to reference standard. The method variability was determined at the level of 7% coefficient variation (CV) of intermediate precision within the qualification exercise. Additionally accuracy, linearity and specificity were tested.

[4] = biological target: T2, HIS-tagged α4β1 integrin; assay: VCAM-1 competitive ELISA; coated VCAM-1 as competitor, HIS-tagged α4β1 integrin in solution; lowest of 26 batches
Description: as §2

[5] = biological target: T2, HIS-tagged α4β1 integrin; assay: VCAM-1 competitive ELISA; coated VCAM-1 as competitor, HIS-tagged α4β1 integrin in solution; highest of 26 batches
Description: as §2

[6] = biological target: T1, α4β7 integrin; assay: MadCAM-1 competitive ELISA; coated α4β7 integrin, Fc-tagged MadCAM-1 as competitor, bound natalizumab detected; 24 batches, n=3
Description: as §1

Relative Potency (REP), min [1]: 0.83 REP (relative to reference standard)
Relative Potency (REP), max [2]: 1.17 REP (relative to reference standard)
Relative Potency (REP), average [3]: 1.04 REP (relative to reference standard)
Relative Potency (REP), min [4]: 0.916 REP (relative to reference standard)
Relative Potency (REP), max [5]: 1.2 REP (relative to reference standard)
Relative Potency (REP), average [6]: 0.995 REP (relative to reference standard)
B1: Natalizumab reference product (Referent batches) (antibody, human IgG4, kappa, V domains shown)
VH: QVQLVQSGAEVKKPGASVKVSCKASGFNIKDTYIHWVRQAPGQRLEWMGRIDPANGYTKYDPKFQGRVTITADTSASTAYMELSSLRSEDTAVYYCAREGYYGNYGVYAMDYWGQGTLVTVSS
VL: DIQMTQSPSSLSASVGDRVTITCKTSQDINKYMAWYQQTPGKAPRLLIHYTSALQPGIPSRFSGSGSGRDYTFTISSLQPEDIATYYCLQYDNLWTFGQGTKVEIKR
